Test results taken from article PMC4180279 (Biochemistry, 2014).

Columns and labels:
[1] = target: Neuronal calcium sensor-1 (NCS-1), N-terminal His tag removed with TEV protease (UniProt P62166 1-190); assay: other fluorescence titration; intrinsic tryptophan fluorescence of 1 μM NCS-1 (excitation 280 nm, emission 290-410 nm), PQIQ peptide added stepwise; 50 mM Tris pH 7.5, 50 mM NaCl, 5 mM CaCl2; room temperature; logistic fit; triplicate; settings: both partners purified
[2] = target: Calmodulin (CaM) expressed from pET-15b (UniProt P0DP23 1-149); assay: NMR titration; 1H-15N HSQC of [15N]NCS-1 (0.8 mM) with PQIQ peptide, then equimolar unlabelled CaM/Ca2+ added to the preformed complex; 50 mM Tris pH 6.5, 50 mM NaCl, 5 mM CaCl2, 300 K; settings: both partners purified

Chain of Neuronal calcium sensor-1 (NCS-1), N-terminal His tag removed with TEV protease (P62166 whole entry): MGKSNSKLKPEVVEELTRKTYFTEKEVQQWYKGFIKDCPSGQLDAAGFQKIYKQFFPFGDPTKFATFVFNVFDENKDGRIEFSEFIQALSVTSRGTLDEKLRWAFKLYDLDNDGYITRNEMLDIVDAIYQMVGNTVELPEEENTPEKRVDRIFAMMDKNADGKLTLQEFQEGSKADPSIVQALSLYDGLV

In the case of TVGKIYAAMMIMEYYRQSKAKKLQAMR [PQIQ peptide, synthetic P/Q peptide corresponding to residues 1903-1929 of the human P/Q receptor], the EC50 [1] is reported as 1040 ± 70 nM and the binding result [2] is reported as “binds”.
